Source: US20150344570A1 (published 2015)

What was measured:
FcγRIIb = molecular target: T1, FcγRIIb (human, UniProt P31994 43-217); experiment: SPR (Biacore), antibody captured, FcγR as analyte; binding relative to GpH7-A5/GpH7-B3/GpL16-k0 = 100
T1 construct: extracellular domain; also called 2b; not shown: His tag at the C terminus
T1 sequence (looked up): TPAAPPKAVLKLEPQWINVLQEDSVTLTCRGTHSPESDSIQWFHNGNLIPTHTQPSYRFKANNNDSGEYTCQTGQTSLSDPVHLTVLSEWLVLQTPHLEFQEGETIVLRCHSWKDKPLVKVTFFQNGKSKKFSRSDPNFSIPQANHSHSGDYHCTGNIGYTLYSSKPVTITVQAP
Method: (§1) The heterodimerized antibodies He Abs in which one of the H chains was introduced with an alteration were assayed for their binding activities to each activating FcγR and inhibitory FcγR according to the method described in Example 4. […] The activating FcγRs in FIGS. 26, 27, 28, and 29 are FcγRIa, FcγRIIa (R), FcγRIIa (H), and FcγRIIIa, respectively.
(§2) Analysis of interaction between objective antibody and the FcγR was carried out using Biacore T100 (GE Healthcare). HBS-EP+ (GE Healthcare) was used as the running buffer, and the measurement temperature was set to 25° C. Chips produced by immobilizing the antigen peptide by the amine coupling method to a Series S Sencor Chip CM5 (GE Healthcare), or alternatively, chips produced by allowing preliminarily biotinylated antigen peptides to interact with and immobilize onto a Series S Sensor Chip SA (certified) (GE Healthcare) were used. Antibodies of interest were captured onto an antigen peptide-immobilized chip, and allowed to interact to each FcγR diluted with running buffer. To regenerate and repeatedly use the chip, the antibodies captured on the chip were washed off by reacting 10 mM glycine-HCl, pH 1.5.

FcγRIIa H = molecular target: T2, FcγRIIa H (human, UniProt P12318 34-217); experiment: as above
T2 construct: extracellular domain; also called FcγRIIa type H; 2aH; not shown: His tag at the C terminus
T2 sequence (looked up): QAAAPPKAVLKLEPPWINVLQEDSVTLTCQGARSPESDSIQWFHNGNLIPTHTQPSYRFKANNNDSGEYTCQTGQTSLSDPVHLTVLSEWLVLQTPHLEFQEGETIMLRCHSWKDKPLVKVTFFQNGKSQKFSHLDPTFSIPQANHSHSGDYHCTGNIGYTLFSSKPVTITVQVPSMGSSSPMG
Method: as §1, §2

[1] = molecular target: T3, human FcγRIIb extracellular domain with C-terminal His tag (human, UniProt P31994 43-217); experiment: SPR (Biacore T100), antibody captured on antigen peptide chip, FcγRIIb as analyte; relative binding
T3 construct: extracellular domain; also called FcgRIIb; 2b; not shown: His tag attached to the C terminus
T3 sequence (looked up): T1 sequence (looked up)
Method: as §2

B1: GpH7-A5/GpH7-B3 variant E333_09D/GpL16-k0 (antibody, human IgG1, kappa)
heavy 1: not shown
heavy 2: not shown
light: DIVMTQSPLSLPVTPGEPASISCQASESLVHSNRNTYLHWYLQKPGQSPQLLIYKVSNRFSGVPDRFSGSGSGTDFTLKISRVEAEDVGVYYCSQNTHVPPTFGQGTKVEIERTVAAPSVFIFPPSDEQLKSGTASVVCLLNNFYPREAKVQWKVDNALQSGNSQESVTEQDSKDSTYSLSSTLTLSKADYEKHKVYACEVTHQGLSSPVTKSFNRGEC
notes: Heterodimerized IgG1; mutation in the GpH7-B3 chain only; also called He Ab
FcγRIIb
  He/Con_2b: 94.3 % of control
FcγRIIa H
  He/Con_2aH: 103 % of control

B2: GpH7-B3 variant L328_03V/GpL16-k0 (Ho Ab) (antibody, human IgG1, kappa)
heavy: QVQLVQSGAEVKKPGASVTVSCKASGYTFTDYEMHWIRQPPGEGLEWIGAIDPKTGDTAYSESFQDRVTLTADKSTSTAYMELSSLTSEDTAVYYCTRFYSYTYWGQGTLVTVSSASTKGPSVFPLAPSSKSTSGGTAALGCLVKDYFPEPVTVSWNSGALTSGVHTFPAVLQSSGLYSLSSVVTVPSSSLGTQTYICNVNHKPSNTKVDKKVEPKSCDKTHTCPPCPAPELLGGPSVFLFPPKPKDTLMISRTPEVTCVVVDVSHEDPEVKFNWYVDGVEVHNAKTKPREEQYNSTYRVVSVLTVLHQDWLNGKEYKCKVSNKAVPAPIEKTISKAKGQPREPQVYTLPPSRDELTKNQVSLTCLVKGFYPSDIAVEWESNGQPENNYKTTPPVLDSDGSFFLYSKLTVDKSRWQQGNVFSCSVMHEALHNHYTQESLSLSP
light: B1 light
notes: Anti-glypican-3 IgG1; mutation in both H chains; also called L328V homodimerized antibody
[1]
  Ho/Con_2b: 135 % of control GpH7-B3/GpL16-k0 (=100)

B3: GpH7-A5/GpH7-B3 variant G236_20W/GpL16-k0 (antibody, human IgG1, kappa)
heavy 1: not shown
heavy 2: not shown
light: B1 light
notes: as for B1
FcγRIIb
  He/Con_2b: 58.2 % of control
FcγRIIa H
  He/Con_2aH: 147 % of control

B4: GpH7-A5/GpH7-B3 variant S324_10E/GpL16-k0 (antibody, human IgG1, kappa)
heavy 1: not shown
heavy 2: not shown
light: B1 light
notes: as for B1
FcγRIIb
  He/Con_2b: 77.4 % of control
FcγRIIa H
  He/Con_2aH: 103 % of control

B5: GpH7-A5/GpH7-B3 variant Q295_05P/GpL16-k0 (antibody, human IgG1, kappa)
heavy 1: not shown
heavy 2: not shown
light: B1 light
notes: as for B1
FcγRIIb
  He/Con_2b: 67.5 % of control
FcγRIIa H
  He/Con_2aH: 103 % of control

B6: GpH7-A5/GpH7-B3 variant S324_16H/GpL16-k0 (antibody, human IgG1, kappa)
heavy 1: not shown
heavy 2: not shown
light: B1 light
notes: as for B1
FcγRIIb
  He/Con_2b: 83.5 % of control
FcγRIIa H
  He/Con_2aH: 102 % of control

B7: GpH7-B3 variant L328_04F/GpL16-k0 (Ho Ab) (antibody, human IgG1, kappa)
heavy: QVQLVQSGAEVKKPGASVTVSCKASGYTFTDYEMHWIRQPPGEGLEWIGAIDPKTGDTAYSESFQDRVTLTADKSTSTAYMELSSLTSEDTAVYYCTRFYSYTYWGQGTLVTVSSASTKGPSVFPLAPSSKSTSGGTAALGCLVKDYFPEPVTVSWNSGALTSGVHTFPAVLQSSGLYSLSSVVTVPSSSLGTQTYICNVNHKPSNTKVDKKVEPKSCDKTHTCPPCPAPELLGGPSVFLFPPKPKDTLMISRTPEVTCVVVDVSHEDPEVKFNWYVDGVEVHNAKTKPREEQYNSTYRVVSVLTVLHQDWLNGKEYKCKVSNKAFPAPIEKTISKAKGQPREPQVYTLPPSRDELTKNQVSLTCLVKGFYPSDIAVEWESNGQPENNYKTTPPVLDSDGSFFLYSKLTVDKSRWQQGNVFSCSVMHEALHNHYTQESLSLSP
light: B1 light
notes: Anti-glypican-3 IgG1; mutation in both H chains; also called L328F homodimerized antibody
[1]
  Ho/Con_2b: 241 % of control GpH7-B3/GpL16-k0 (=100)

B8: GpH7-A5/GpH7-B3 variant H268_04F/GpL16-k0 (antibody, human IgG1, kappa)
heavy 1: not shown
heavy 2: not shown
light: B1 light
notes: as for B1
FcγRIIb
  He/Con_2b: 89.6 % of control
FcγRIIa H
  He/Con_2aH: 111 % of control

B9: GpH7-B3 variant K334_16H/GpL16-k0 (Ho Ab) (antibody, human IgG1, kappa)
heavy: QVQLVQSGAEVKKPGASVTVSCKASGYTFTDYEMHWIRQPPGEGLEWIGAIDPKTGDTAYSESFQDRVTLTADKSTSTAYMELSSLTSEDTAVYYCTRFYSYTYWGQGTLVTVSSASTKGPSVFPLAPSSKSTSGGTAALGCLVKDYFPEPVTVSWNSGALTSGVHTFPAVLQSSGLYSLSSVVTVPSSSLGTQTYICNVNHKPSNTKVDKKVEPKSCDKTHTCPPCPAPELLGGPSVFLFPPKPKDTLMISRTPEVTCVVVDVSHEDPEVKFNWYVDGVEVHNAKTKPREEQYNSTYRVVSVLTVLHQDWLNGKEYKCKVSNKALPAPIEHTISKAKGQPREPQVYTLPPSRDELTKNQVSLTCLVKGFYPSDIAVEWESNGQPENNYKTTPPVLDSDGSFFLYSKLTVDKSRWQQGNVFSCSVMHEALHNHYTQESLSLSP
light: B1 light
notes: Anti-glypican-3 IgG1; mutation in both H chains; also called K334H homodimerized antibody
[1]
  Ho/Con_2b: 124 % of control GpH7-B3/GpL16-k0 (=100)

B10: GpH7-A5/GpH7-B3 variant E333_14T/GpL16-k0 (antibody, human IgG1, kappa)
heavy 1: not shown
heavy 2: not shown
light: B1 light
notes: as for B1
FcγRIIb
  He/Con_2b: 86.1 % of control
FcγRIIa H
  He/Con_2aH: 100 % of control

B11: GpH7-A5/GpH7-B3 variant Y300_06M/GpL16-k0 (antibody, human IgG1, kappa)
heavy 1: not shown
heavy 2: not shown
light: B1 light
notes: as for B1
FcγRIIb
  He/Con_2b: 84.3 % of control
FcγRIIa H
  He/Con_2aH: 105 % of control

B12: GpH7-A5/GpH7-B3 variant I336_03V/GpL16-k0 (antibody, human IgG1, kappa)
heavy 1: not shown
heavy 2: not shown
light: B1 light
notes: as for B1
FcγRIIb
  He/Con_2b: 90.3 % of control
FcγRIIa H
  He/Con_2aH: 102 % of control

B13: GpH7-A5/GpH7-B3 variant I332_13S/GpL16-k0 (antibody, human IgG1, kappa)
heavy 1: not shown
heavy 2: not shown
light: B1 light
notes: as for B1
FcγRIIb
  He/Con_2b: 98.4 % of control
FcγRIIa H
  He/Con_2aH: 110 % of control

B14: GpH7-B3 variant L328_07I/GpL16-k0 (Ho Ab) (antibody, human IgG1, kappa)
heavy: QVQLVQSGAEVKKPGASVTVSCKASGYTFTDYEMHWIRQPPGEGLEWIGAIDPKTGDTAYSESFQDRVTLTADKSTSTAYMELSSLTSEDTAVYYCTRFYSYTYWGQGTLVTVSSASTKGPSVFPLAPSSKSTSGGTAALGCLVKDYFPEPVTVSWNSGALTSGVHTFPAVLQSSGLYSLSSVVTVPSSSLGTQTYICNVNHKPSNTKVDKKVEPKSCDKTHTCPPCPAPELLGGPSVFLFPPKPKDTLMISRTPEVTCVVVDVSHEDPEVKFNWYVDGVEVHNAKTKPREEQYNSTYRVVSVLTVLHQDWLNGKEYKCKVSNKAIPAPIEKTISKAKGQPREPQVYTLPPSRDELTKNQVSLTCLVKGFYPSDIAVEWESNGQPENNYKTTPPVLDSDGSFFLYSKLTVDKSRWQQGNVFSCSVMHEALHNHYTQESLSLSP
light: B1 light
notes: Anti-glypican-3 IgG1; mutation in both H chains; also called L328I homodimerized antibody
[1]
  Ho/Con_2b: 188 % of control GpH7-B3/GpL16-k0 (=100)

B15: GpH7-A5/GpH7-B3 variant S324_20W/GpL16-k0 (antibody, human IgG1, kappa)
heavy 1: not shown
heavy 2: not shown
light: B1 light
notes: as for B1
FcγRIIb
  He/Con_2b: 87.5 % of control
FcγRIIa H
  He/Con_2aH: 103 % of control

B16: GpH7-A5/GpH7-B3 variant Q295_07I/GpL16-k0 (antibody, human IgG1, kappa)
heavy 1: not shown
heavy 2: not shown
light: B1 light
notes: as for B1
FcγRIIb
  He/Con_2b: 84.3 % of control
FcγRIIa H
  He/Con_2aH: 102 % of control

B17: GpH7-B3 variant K334_18N/GpL16-k0 (Ho Ab) (antibody, human IgG1, kappa)
heavy: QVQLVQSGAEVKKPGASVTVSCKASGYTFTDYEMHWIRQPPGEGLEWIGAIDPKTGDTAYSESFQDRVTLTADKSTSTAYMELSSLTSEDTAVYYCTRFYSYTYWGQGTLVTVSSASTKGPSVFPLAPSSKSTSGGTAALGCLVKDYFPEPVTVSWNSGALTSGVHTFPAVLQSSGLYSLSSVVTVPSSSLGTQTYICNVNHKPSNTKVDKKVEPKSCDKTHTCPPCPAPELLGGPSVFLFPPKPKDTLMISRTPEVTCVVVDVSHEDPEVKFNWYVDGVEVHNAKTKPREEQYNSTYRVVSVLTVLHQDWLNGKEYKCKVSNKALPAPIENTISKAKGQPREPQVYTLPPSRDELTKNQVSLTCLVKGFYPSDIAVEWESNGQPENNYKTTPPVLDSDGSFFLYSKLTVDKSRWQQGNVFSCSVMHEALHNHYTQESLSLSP
light: B1 light
notes: Anti-glypican-3 IgG1; mutation in both H chains; also called K334N homodimerized antibody
[1]
  Ho/Con_2b: 128 % of control GpH7-B3/GpL16-k0 (=100)

B18: GpH7-A5/GpH7-B3 variant E333_13S/GpL16-k0 (antibody, human IgG1, kappa)
heavy 1: not shown
heavy 2: not shown
light: B1 light
notes: as for B1
FcγRIIb
  He/Con_2b: 81.8 % of control
FcγRIIa H
  He/Con_2aH: 101 % of control

B19: GpH7-B3 variant K334_19Q/GpL16-k0 (Ho Ab) (antibody, human IgG1, kappa)
heavy: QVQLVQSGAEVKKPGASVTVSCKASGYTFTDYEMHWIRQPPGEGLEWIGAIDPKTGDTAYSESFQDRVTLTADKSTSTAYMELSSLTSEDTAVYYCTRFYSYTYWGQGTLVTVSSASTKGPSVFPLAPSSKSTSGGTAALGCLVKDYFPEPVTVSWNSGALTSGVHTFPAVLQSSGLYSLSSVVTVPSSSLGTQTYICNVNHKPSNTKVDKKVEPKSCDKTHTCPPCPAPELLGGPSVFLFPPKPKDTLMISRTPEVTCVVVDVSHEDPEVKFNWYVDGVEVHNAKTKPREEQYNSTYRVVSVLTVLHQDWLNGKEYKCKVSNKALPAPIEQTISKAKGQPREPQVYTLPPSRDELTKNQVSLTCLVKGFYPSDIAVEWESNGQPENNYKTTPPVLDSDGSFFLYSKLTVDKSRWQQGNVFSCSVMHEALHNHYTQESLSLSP
light: B1 light
notes: Anti-glypican-3 IgG1; mutation in both H chains; also called K334Q homodimerized antibody
[1]
  Ho/Con_2b: 117 % of control GpH7-B3/GpL16-k0 (=100)

B20: GpH7-B3 variant L328_14T/GpL16-k0 (Ho Ab) (antibody, human IgG1, kappa)
heavy: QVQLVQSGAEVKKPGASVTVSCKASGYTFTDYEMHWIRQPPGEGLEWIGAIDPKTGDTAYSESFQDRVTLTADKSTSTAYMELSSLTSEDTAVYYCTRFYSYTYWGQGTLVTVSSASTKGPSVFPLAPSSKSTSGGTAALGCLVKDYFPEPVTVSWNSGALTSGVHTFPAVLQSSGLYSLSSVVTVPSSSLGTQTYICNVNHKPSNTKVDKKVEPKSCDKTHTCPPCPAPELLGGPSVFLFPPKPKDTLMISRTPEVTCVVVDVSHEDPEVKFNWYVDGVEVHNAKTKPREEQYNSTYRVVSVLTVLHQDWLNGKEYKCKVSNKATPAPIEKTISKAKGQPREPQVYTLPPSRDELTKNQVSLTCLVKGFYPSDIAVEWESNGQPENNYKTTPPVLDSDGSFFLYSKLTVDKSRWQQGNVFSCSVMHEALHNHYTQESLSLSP
light: B1 light
notes: Anti-glypican-3 IgG1; mutation in both H chains; also called L328T homodimerized antibody
[1]
  Ho/Con_2b: 146 % of control GpH7-B3/GpL16-k0 (=100)

B21: GpH7-B3 variant L328_06M/GpL16-k0 (Ho Ab) (antibody, human IgG1, kappa)
heavy: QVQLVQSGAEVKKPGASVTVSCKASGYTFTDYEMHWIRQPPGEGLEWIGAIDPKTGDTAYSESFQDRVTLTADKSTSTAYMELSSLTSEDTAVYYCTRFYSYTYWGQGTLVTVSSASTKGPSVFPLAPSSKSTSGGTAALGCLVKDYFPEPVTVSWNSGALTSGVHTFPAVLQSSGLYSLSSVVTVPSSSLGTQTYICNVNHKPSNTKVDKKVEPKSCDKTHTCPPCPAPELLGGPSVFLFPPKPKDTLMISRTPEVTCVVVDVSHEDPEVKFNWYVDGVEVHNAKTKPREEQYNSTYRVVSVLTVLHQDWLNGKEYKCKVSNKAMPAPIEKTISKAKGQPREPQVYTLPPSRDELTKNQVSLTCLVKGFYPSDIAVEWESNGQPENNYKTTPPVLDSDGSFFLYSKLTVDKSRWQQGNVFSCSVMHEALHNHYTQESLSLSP
light: B1 light
notes: Anti-glypican-3 IgG1; mutation in both H chains; also called L328M homodimerized antibody
[1]
  Ho/Con_2b: 171 % of control GpH7-B3/GpL16-k0 (=100)

B22: GpH7-A5/GpH7-B3 variant K326_12R/GpL16-k0 (antibody, human IgG1, kappa)
heavy 1: not shown
heavy 2: not shown
light: B1 light
notes: as for B1
FcγRIIb
  He/Con_2b: 89.2 % of control
FcγRIIa H
  He/Con_2aH: 101 % of control
